The values below come from publication PMC6262109.

Common to all, as to test: EMSA
Data set [1] concerns the target T1, FLAG-Dmp1 (Dmp1alpha) (UniProt Q8CE22 1-761).
T1 sequence: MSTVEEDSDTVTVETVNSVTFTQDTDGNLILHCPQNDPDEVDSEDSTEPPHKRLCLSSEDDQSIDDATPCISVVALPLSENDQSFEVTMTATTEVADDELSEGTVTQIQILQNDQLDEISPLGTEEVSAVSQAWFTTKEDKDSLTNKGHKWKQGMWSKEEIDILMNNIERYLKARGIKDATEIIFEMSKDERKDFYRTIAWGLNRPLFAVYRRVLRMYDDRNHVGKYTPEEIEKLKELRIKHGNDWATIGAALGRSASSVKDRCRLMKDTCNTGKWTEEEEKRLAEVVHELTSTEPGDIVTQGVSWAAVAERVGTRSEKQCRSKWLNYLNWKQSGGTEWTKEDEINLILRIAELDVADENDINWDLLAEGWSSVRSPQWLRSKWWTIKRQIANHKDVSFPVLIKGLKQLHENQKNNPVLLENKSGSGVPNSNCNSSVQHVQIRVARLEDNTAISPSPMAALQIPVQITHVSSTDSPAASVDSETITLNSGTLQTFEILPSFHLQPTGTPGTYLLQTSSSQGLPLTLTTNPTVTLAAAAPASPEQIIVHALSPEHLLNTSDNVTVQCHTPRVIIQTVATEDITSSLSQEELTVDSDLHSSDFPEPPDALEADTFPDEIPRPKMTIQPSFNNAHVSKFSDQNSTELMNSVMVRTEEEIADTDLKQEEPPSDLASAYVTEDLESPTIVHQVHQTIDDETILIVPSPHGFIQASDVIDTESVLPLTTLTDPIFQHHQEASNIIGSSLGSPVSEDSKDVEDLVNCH

The target in data set [2] is p53 (UniProt P04637 1-393).
For data set [3], the target named is T2, FLAG-Dmp1 (Dmp1alpha);p53 (mouse?;, UniProt Q8CE22;P04637 1-761;1-393, |).
Data set [4] has as its target T2, FLAG-Dmp1 (Dmp1alpha);p53. This is another data set of the same source.

Read-outs that look alike come from different tables or passages of the source.

B1: mouse Arf promoter Dmp1 site (dsDNA)
DNA 1: TACCTCGTGGGGCGGATGCACAGAAGCAC
DNA 2: GTGCTTCTGTGCATCCGCCCCACGAGGTA
On to B1, for which the binding result in data set [1] is listed as “binds”.

B2: mouse p21Cip1 p53 consensus #2 (dsDNA)
DNA 1: AGACTGGGCATGTCTGGGCA
DNA 2: TGCCCAGACATGCCCAGTCT
Consider B2, for which the binding result in data set [2] is given as “binds”. Also, in data set [3], the binding signal was 3 fold vs p53+BSA.

B3: p53-g general p53 consensus (dsDNA)
DNA 1: AGGCATGCCTAGGCATGCCT
DNA 2: AGGCATGCCTAGGCATGCCT
Turning to B3, the binding signal in data set [4] worked out at 6 fold vs p53 alone.
